Legend:
Assay in all cases: flow cytometry on cells; 2D3 cells with a VHH-CAR incubated with biotinylated CS1 antigen, then PE-coupled streptavidin
Details in all cases: one partner purified
[1] = target: T1, VHH-2 CAR on 2D3 reporter T cells (llama | human)
T1 construct: as the VHH of m1; cloned by PstI/BstEII from pHEN6c; hinge region derived from human IgG4; transmembrane and intracellular co-stimulatory domain derived from human CD28; also called 2D3-2; VHH-CAR with VHH-2; source: 2D3 reporter T cells, lentivirally transduced, sorted, on cells

[2] = target: T2, VHH-6 CAR on 2D3 reporter T cells (llama | human)
T2 construct: as the VHH of m2; cloned by PstI/BstEII from pHEN6c; hinge region derived from human IgG4; transmembrane and intracellular co-stimulatory domain derived from human CD28; also called 2D3-6; VHH-CAR with VHH-6; source: 2D3 reporter T cells, lentivirally transduced, sorted, on cells

[3] = target: T3, VHH-17 CAR on 2D3 reporter T cells (llama | human)
T3 construct: as the VHH of m3; cloned by PstI/BstEII from pHEN6c; hinge region derived from human IgG4; transmembrane and intracellular co-stimulatory domain derived from human CD28; also called 2D3-17; VHH-CAR with VHH-17; source: 2D3 reporter T cells, lentivirally transduced, sorted, on cells

[4] = target: T4, VHH-29 CAR on 2D3 reporter T cells (llama | human)
T4 construct: as the VHH of m7; cloned by PstI/BstEII from pHEN6c; hinge region derived from human IgG4; transmembrane and intracellular co-stimulatory domain derived from human CD28; also called 2D3-29; VHH-CAR with VHH-29; source: 2D3 reporter T cells, lentivirally transduced, sorted, on cells

[5] = target: T5, VHH-53 CAR on 2D3 reporter T cells (llama | human)
T5 construct: as the VHH of m10; cloned by PstI/BstEII from pHEN6c; hinge region derived from human IgG4; transmembrane and intracellular co-stimulatory domain derived from human CD28; also called 2D3-53; VHH-CAR with VHH-53; source: 2D3 reporter T cells, lentivirally transduced, sorted, on cells

[6] = target: T6, VHH-57 CAR on 2D3 reporter T cells (llama | human)
T6 construct: as the VHH of m12; cloned by PstI/BstEII from pHEN6c; hinge region derived from human IgG4; transmembrane and intracellular co-stimulatory domain derived from human CD28; also called 2D3-57; VHH-CAR with VHH-57; source: 2D3 reporter T cells, lentivirally transduced, sorted, on cells

[7] = target: T7, VHH-61 CAR on 2D3 reporter T cells (llama | human)
T7 construct: as the VHH of m13; cloned by PstI/BstEII from pHEN6c; hinge region derived from human IgG4; transmembrane and intracellular co-stimulatory domain derived from human CD28; also called 2D3-61; VHH-CAR with VHH-61; source: 2D3 reporter T cells, lentivirally transduced, sorted, on cells

[8] = target: T8, VHH-63 CAR on 2D3 reporter T cells (llama | human)
T8 construct: as the VHH of m14; cloned by PstI/BstEII from pHEN6c; hinge region derived from human IgG4; transmembrane and intracellular co-stimulatory domain derived from human CD28; also called 2D3-63; VHH-CAR with VHH-63; source: 2D3 reporter T cells, lentivirally transduced, sorted, on cells

[9] = target: T9, VHH-71 CAR on 2D3 reporter T cells (llama | human)
T9 construct: as the VHH of m16; cloned by PstI/BstEII from pHEN6c; hinge region derived from human IgG4; transmembrane and intracellular co-stimulatory domain derived from human CD28; also called 2D3-71; VHH-CAR with VHH-71; source: 2D3 reporter T cells, lentivirally transduced, sorted, on cells

[10] = target: T10, VHH-73 CAR on 2D3 reporter T cells (llama | human)
T10 construct: as the VHH of m17; cloned by PstI/BstEII from pHEN6c; hinge region derived from human IgG4; transmembrane and intracellular co-stimulatory domain derived from human CD28; also called 2D3-73; VHH-CAR with VHH-73; source: 2D3 reporter T cells, lentivirally transduced, sorted, on cells

Measured: binding result

T3 sequence (heavy, as listed by the source): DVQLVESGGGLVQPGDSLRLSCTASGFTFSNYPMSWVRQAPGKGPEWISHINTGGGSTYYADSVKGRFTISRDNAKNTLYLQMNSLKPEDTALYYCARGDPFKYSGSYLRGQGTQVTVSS
T2 sequence (heavy, as listed by the source): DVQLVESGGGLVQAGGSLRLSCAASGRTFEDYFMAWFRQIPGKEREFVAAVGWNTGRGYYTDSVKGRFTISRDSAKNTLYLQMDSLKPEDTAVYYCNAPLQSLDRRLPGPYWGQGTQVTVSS
T1 sequence (heavy, as listed by the source): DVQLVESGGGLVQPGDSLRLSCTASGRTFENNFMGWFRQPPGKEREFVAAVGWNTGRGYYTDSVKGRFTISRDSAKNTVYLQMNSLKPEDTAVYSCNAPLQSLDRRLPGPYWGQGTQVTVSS

B1: biotinylated recombinant human CS1 (CS1-(his)C-PEG4-biotin) (domain or fragment, UniProt Q9NQ25 23-226, looked up)
chain: SGPVKELVGSVGGAVTFPLKSKVKQVDSIVWTFNTTPLVTIQPEGGTIIVTQNRNRERVDFPDGGYSLKLSKLKKNDSGIYYVGIYSSSLQQPSTQEYVLHVYEHLSKPKVTMGLQSNKNGTCVTNLTCCMEHGEEDVIYTWKALGQAANESHNGSILPISWRWGESDMTFICVARNPVSRNFSSPILARKLCEGAADDPDSSM
modifications: PEG4-biotin
notes: CS1 (SLAMF7, CD319), human, the extracellular portion, biotinylated variant; also called biotinylated CS1 antigen; biotinylated CS1 protein; source: custom-produced by U Protein Express
binds: [1] | [2] | [3] | [4] | [5] | [6] | [7] | [8] | [9] | [10]
